This experiment deals with SARS-CoV-2原始毒株的RBD蛋白 (SARS-CoV-2 RBD-his蛋白) (SARS-CoV-2 original strain, UniProt P0DTC2 319-541).

Results on one molecule are retold here after patent publication CN116813757A (INST MICROBIOLOGY CAS, dated 2023).

B1: 单链纳米抗体R14 (R14-his蛋白) (VHH)
VHH: QVQLQESGGGLVQPGGSLRLSCAVSGFTLDYYAIGWFRQAPGKEREGVSCISSSDGSTSYADSVKGRFTISRDNAKNTVYLQMNSLKPEDTALYYCAATPATYYSGRYYYQCPAGGMDYWGQGTQVTVSS
B1 gave a Kd below 0.1 nM.
